Ends that are not written are not given here.
Molecular target: the molecule itself
Assay: FRET or BRET; donor- (Rhodamine Red) and acceptor- (Atto647N) labelled peptides reconstituted together in 100 nm LUVs of C14:1, C16:1, C18:1 or C20:1 PC, without or with 30 mol% cholesterol; protein-to-lipid 1:1000; 50 mM HEPES, 150 mM KCl, pH 7.4

B1: Syntaxin 4 TMD (residues 262-297; sx-4TM) (peptide, UniProt Q12846 262-297, looked up)
peptide: ALENQKKARKKKVLIAICVSITVVLLAVIIGVTVVG
modifications: also: N-terminus: Rhodamine Red or Atto647N
notes: syntaxin 4 transmembrane domain with juxtamembrane stretch, Homo sapiens, residues 262-297; also called syntaxin 4 truncation mutant; source: synthetic peptide (Fmoc solid phase synthesis)
  binding result: binds

— PMC4313621, “Hydrophobic mismatch sorts SNARE proteins into distinct membrane domains” (Nature Communications, 2015)
